From paper PMC12518634 (2025) come the findings set out here.

In one assay the target is His-HDAC2, recombinant (UniProt Q92769 1-488). Put plainly: SPR. For orientation: Surface plasmon resonance follows binding to a sensor surface in real time, without labels.
Another assay addresses His-HDAC1, recombinant (human, UniProt Q13547 1-482). Put plainly: SPR.

Chain of His-HDAC2, recombinant (Q92769 whole entry): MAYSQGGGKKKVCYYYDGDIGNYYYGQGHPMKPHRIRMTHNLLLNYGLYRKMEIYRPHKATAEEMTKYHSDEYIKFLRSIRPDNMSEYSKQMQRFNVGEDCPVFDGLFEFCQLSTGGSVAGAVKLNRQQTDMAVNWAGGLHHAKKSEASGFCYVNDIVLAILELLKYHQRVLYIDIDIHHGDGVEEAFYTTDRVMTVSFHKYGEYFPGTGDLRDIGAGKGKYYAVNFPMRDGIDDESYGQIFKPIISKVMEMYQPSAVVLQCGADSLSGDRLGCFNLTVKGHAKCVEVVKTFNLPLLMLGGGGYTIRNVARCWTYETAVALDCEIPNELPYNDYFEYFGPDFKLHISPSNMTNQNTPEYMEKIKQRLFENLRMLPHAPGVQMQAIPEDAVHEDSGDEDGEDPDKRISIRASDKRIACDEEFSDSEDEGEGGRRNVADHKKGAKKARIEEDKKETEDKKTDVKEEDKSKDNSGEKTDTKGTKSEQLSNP
Chain of His-HDAC1, recombinant (Q13547 whole entry): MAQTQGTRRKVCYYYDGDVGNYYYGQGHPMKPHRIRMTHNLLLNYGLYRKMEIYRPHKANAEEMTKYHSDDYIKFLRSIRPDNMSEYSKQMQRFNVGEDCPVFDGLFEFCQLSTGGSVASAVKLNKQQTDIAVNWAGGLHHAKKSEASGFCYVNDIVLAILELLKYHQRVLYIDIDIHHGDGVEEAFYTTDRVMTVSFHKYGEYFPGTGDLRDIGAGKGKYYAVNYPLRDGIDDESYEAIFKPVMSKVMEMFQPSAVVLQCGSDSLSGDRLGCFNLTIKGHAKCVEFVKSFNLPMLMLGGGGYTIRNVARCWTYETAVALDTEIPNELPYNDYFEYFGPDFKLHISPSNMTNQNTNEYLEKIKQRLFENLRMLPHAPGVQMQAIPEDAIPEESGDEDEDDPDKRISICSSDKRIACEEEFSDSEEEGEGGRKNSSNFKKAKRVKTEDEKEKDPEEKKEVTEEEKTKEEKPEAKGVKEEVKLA

B1: GST-PFKL, recombinant (enzyme)
chain: MAAVDLEKLRASGAGKAIGVLTSGGDAQGMNAAVRAVTRMGIYVGAKVFLIYEGYEGLVEGGENIKQANWLSVSNIIQLGGTIIGSARCKAFTTREGRRAAAYNLVQHGITNLCVIGGDGSLTGANIFRSEWGSLLEELVAEGKISETTARTYSHLNIAGLVGSIDNDFCGTDMTIGTDSALHRIMEVIDAITTTAQSHQRTFVLEVMGRHCGYLALVSALASGADWLFIPEAPPEDGWENFMCERLGETRSRGSRLNIIIIAEGAIDRNGKPISSSYVKDLVVQRLGFDTRVTVLGHVQRGGTPSAFDRILSSKMGMEAVMALLEATPDTPACVVTLSGNQSVRLPLMECVQMTKEVQKAMDDKRFDEATQLRGGSFENNWNIYKLLAHQKPPKEKSNFSLAILNVGAPAAGMNAAVRSAVRTGISHGHTVYVVHDGFEGLAKGQVQEVGWHDVAGWLGRGGSMLGTKRTLPKGQLESIVENIRIYGIHALLVVGGFEAYEGVLQLVEARGRYEELCIVMCVIPATISNNVPGTDFSLGSDTAVNAAMESCDRIKQSASGTKRRVFIVETMGGYCGYLATVTGIAVGADAAYVFEDPFNIHDLKVNVEHMTEKMKTDIQRGLVLRNEKCHDYYTTEFLYNLYSSEGKGVFDCRTNVLGHLQQGGAPTPFDRNYGTKLGVKAMLWLSEKLREVYRKGRVFANAPDSACVIGLKKKAVAFSPVTELKKDTDFEHRMPREQWWLSLRLMLKMLAQYRISMAAYVSGELEHVTRRTLSMDKGF
Broadly, the Kd is the equilibrium constant for the complex coming apart. Take B1: the Kd in the assay with His-HDAC2, recombinant came out at 9.5 nM; with His-HDAC1, recombinant, 2.18 nM.
